Results taken from the supplement of paper PMC10126150.
± gives the standard deviation of the averaged measurements.

tested on: ATP; test: switch fluorescence ratio, 500 uM ATP over buffer (Cy3 cluster intensity, sum of 5 cycles each) (fold (ratio)); higher = stronger signal-on switching upon ATP binding; sequences stand for … in TCGTCGGCAGCGTCAGATGTGTATAAGAGACAGTTTTTTTTTTTTTTTTTTTTTTTTT…TC; conditions: aptamer strand: ATP DNA aptamer (quencher-CACCTGGGGGAGTATTGCGGAGGAAGG + anchor), 100 nM annealed; ATP concentration: 500 uM
Procedure, shortened: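 After annealing to 100 nM quencher-labelled ATP aptamer, Cy3-labelled switching-strand clusters on a modified Illumina MiSeq flow-cell were imaged in selection buffer. A second image followed after 15 min with 500 uM ATP at 22 °C, and five such buffer/ATP cycles were done, each separated by NaOH stripping and re-annealing. The fluorescence ratio, averaged per switch-domain sequence, is summed target-cycle over summed buffer-cycle Cy3 intensity per cluster, with clusters outside 100-1000 RFU excluded.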
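Also: ATP exposure 15 min at 22 °C before imaging.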

In order of rising switch fluorescence ratio:
1. GGGTATAGGA  0.944 ± 0.033
2. AATGCTAATA  0.952 ± 0.011
3. TTCGATCTGA  0.955 ± 0.012
4. TTATGGTGAA  0.956 ± 0.049
5. CGGGACAGTG  0.957 ± 0.024
6. GATCAGATGT  0.958 ± 0.048
7. TCGTTTGGTA  0.958 ± 0.027
8. GTGACTGTGT  0.963 ± 0.014
9. TCGGAAGTAT  0.9629 ± 0.0083
10. TTTCTGGTCG  0.964 ± 0.019
11. CGGTTTATGA  0.968 ± 0.016
12. TGGTCTAGTG  0.968 ± 0.043
13. ATGGGTTCAG  0.969 ± 0.0045
14. AAGGGACTGC  0.97 ± 0.018
15. GATGTGTTTT  0.974 ± 0.02
16. CATATATTT  0.975 ± 0.015
17. TTTTATCATG  0.9758 ± 0.0028
18. TGGTCCAGAA  0.977 ± 0.016
19. GGGGGAGAG  0.979 ± 0.034
20. GGGGTAGAGT  0.98 ± 0.017
21. TGAGGTTCGA  0.98 ± 0.03
22. CGGGGTGAGA  0.9809 ± 0.0069
23. GGGGCCCGAA  0.981 ± 0.035
24. TTTTGGCGGG  0.983 ± 0.022
25. TTTGAATATA  0.985 ± 0.022
26. TGGTTTGGGT  0.986 ± 0.026
27. GGAGAGAAAG  0.9866 ± 0.0024
28. TTGAGTAGGT  0.987 ± 0.031
29. TGTTTTAATG  0.988 ± 0.011
30. GGGGCGGAGT  0.989 ± 0.055
31. GATGTGGGGG  0.99 ± 0.028
32. CATATTTA  0.992 ± 0.02
33. AATTTGATGG  0.995 ± 0.013
34. CGGGCATCGA  0.995 ± 0.061
35. ATAGGGGCAG  0.996 ± 0.03
36. TTGCTTGTAT  0.9992 ± 0.0098
37. TTGAGGGGAA  0.999 ± 0.025
38. ATTTGCGTTT  0.999 ± 0.019
39. ATCCTGGATA  1.003 ± 0.01
40. GTTGTTACAA  1.004 ± 0.0092
41. TGTTGGGAGA  1 ± 0.025
42. AAAGTCTAC  1 ± 0.017
43. GTCGAATGGG  1 ± 0.02
44. TACGGCCGAG  1 ± 0.0029
45. GCCGGGACTA  1.01 ± 0.024
46. TTTTAACCTG  1.01 ± 0.046
47. TTGGCGGAGG  1.007 ± 0.0058
48. GCTATTTAGT  1.0108 ± 0.00043
49. AGACTGGGCT  1.01 ± 0.011
50. CCAGCTGCGG  1.01 ± 0.022
51. GATAAAGGGT  1.005 ± 0.0052
52. AATGTGTGAA  1.01 ± 0.017
53. ATAAATGTGT  1.01 ± 0.041
54. CGAATTTGTC  1.02 ± 0.035
55. GGCACTGGGG  1.02 ± 0.02
56. CGAATTCCAC  1.024 ± 0.0099
57. AGAGAGGACG  1.02 ± 0.033
58. GAGAACAGTG  1.02 ± 0.041
59. TCTGGGTCGC  1.02 ± 0.017
60. CGGGCTAAGA  1.02 ± 0.041
61. AGTGTGTTCT  1.02 ± 0.021
62. TTTTGGTAGG  1.02 ± 0.02
63. TTGGGGGGAT  1.02 ± 0.053
64. TTTCCTGGCG  1.024 ± 0.0089
65. AGAGTTTGAA  1.02 ± 0.024
66. ATGGCAACCG  1.02 ± 0.012
67. AGGTGTGAGC  1.03 ± 0.012
68. ATTCAAGTCA  1.03 ± 0.025
69. GAAGAATCTG  1.03 ± 0.016
70. ATCCGGGATG  1.03 ± 0.021
71. CACGTAAACG  1.0351 ± 9.7e-05
72. TGAAACTTGA  1.042 ± 0.0055
73. TTTGTGGAGC  1.04 ± 0.071
74. CAGGAAGCTG  1.04 ± 0.11
75. CAAAGTAAAA  1.04 ± 0.054
76. CAAGGACTGT  1.05 ± 0.016
77. CTAAGCGGGA  1.05 ± 0.016
78. TAAAATCCTG  1.05 ± 0.039
79. TGTTCGGGTG  1.05 ± 0.022
80. TCCAAGGGGT  1.06 ± 0.044
81. ATTATCAGGT  1.06 ± 0.057
82. AACCTTGACG  1.07 ± 0.047
83. GGGGGCACGA  1.07 ± 0.021
84. TTTCGCCCCT  1.1 ± 0.062
85. CGGACTCAAA  1.12 ± 0.025
86. TTTCGAAACG  1.12 ± 0.21
87. CGTGTTGTAC  1.13 ± 0.024
88. GGAAACCCGC  1.14 ± 0.071
89. TCCGTGGGGA  1.16 ± 0.25
90. TTTTTTTGAT  1.16 ± 0.53
91. AGAGGCAAGA  1.16 ± 0.028
92. TTAAGCACTT  1.19 ± 0.062
93. CGGAGGAGGG  1.21 ± 0.3
94. TCTCAATGCT  1.21 ± 0.2
95. GACGGATGAC  1.33 ± 0.15
96. ACGCACGATT  1.37 ± 0.1
97. CCGGAGAGTT  1.58 ± 0.11
98. TTGGGCAATA  1.77 ± 0.35
99. TGGCGCGTAC  1.81 ± 0.095
100. TCGGGGATAT  3.05 ± 2.9
